This is an account of results in paper PMC7568657, “SppI Forms a Membrane Protein Complex with SppA and Inhibits Its Protease Activity in Bacillus subtilis” (mSphere, 2020).

Residue numbers refer to the chain shown, from its start. Numbers in names are those of the source. Where “and” joins values, the source holds several entries; their conditions need not be identical. Equal values may be shown once.

A word on the stoichiometry N: it is a count of units in the complex or per binding partner.

In one data set the target is SppI-SPA (B. subtilis) (UniProt O34424). The data set is described as follows: affinity purification with mass spectrometry; tandem affinity purification of SppI-SPA (calmodulin resin, then anti-FLAG resin) from B. subtilis membranes in 10 mM Tris-Cl pH 7.5, 150 mM NaCl, 1% DDM, 4°C; LC-MS/MS; two independent experiments.
Data set [1] deals with the molecule itself. Briefly: SEC; gel filtration of affinity-purified proteins on Superdex 200 GL 10/300; apparent sizes against MW markers.

“SppA (from UniProt O34525 1-335) (enzyme)”: in the data set with SppI-SPA (B. subtilis), the stoichiometry N (SppA per SppI (by the PAI values)) is 1 and 2.

B1: SppI-FLAG (natural protein, B. subtilis, UniProt O34424 1-164, looked up)
chain: MDATYEELERNDIKGPQEAELLTHAYAGFWVRFWAFLLDWLVIWGLNHLLVSPLFTVLDLPKTSGMFTFSAYSVTTLIVYLAYFALMTKYFRQTLGKMVFGLKVVSVKQDSKLTWSTVIFREVVGRYIDKIWILYIVVAFSPTKQGIHDYIADTTVVHEKLYRK
notes: SppI (formerly YteJ), membrane protein of Bacillus subtilis; not shown: FLAG, C-terminal, kept
On to B1, for which, in data set [1], the “stoichiometry N” value is 8.

B2: 6×His-SppI (natural protein, B. subtilis, UniProt O34424 1-164, looked up)
chain: B1 chain
notes: SppI (formerly YteJ), membrane protein of Bacillus subtilis, amplified from BSB1 chromosomal DNA; source: E. coli ER2566, purified from the membrane fraction (1% DDM, Ni-NTA, gel filtration); not shown: 6×His, N-terminal, kept
B2: in data set [1], the “stoichiometry N” value amounted to 8.

B3: 6×His-SppA (enzyme, B. subtilis, UniProt O34525 1-335, looked up)
chain: MNAKRWIALVIALGIFGVSIIVSISMSFFESVKGAQTDLTSLTDESQEKTLENGSPSSKIAVLEVSGTIQDNGDSSSLLGADGYNHRTFLKNLERAKDDKTVKGIVLKVNSPGGGVYESAEIHKKLEEIKKETKKPIYVSMGSMAASGGYYISTAADKIFATPETLTGSLGVIMESVNYSKLADKLGISFETIKSGAHKDIMSPSREMTKEEKNIMQSMVDNSYEGFVDVISKGRGMPKAEVKKIADGRVYDGRQAKKLNLVDELGFYDDTITAMKKDHKDLKNASVISYEESFGLGSLFSMGANKMFKSEIDFLNMREILSQSGSPRMMYLYAK
notes: SppA, membrane protease of Bacillus subtilis, amplified from BSB1 chromosomal DNA; Purified alone it gave at least three bands of 32 to 34 kDa (C-terminal domain partly self-cleaved); purified with SppI the major band was about 36 kDa and still held most of the C terminus; source: E. coli ER2566, purified from the cytoplasmic membrane fraction (1% DDM, Ni-NTA, gel filtration); not shown: 6×His, …
B3: the “stoichiometry N” value in data set [1] came out at 8.

B4: 6×His-SppA^K199A (enzyme, B. subtilis, UniProt O34525 1-335, looked up)
chain: B3 chain with K199A
notes: SppA, membrane protease of Bacillus subtilis, with the active-site mutation K199A; band of about 36 kDa; not shown: 6×His, N-terminal, kept
With B4, the “stoichiometry N” value in data set [1] amounted to 8.
